{
  "source": "paper PMC5243199",
  "about": "(Cancer research, 2016)",
  "binders": {"B1": {"name": "His-menin (natural protein, UniProt O00255-2 1-610, looked up)", "chain": "MGLKAAQKTLFPLRSIDDVVRLFAAELGREEPDLVLLSLVLGFVEHFLAVNRVIPTNVPELTFQPSPAPDPPGGLTYFPVADLSIIAALYARFTAQIRGAVDLSLYPREGGVSSRELVKKVSDVIWNSLSRSYFKDRAHIQSLFSFITGTKLDSSGVAFAVVGACQALGLRDVHLALSEDHAWVVFGPNGEQTAEVTWHGKGNEDRRGQTVNAGVAERSWLYLKGSYMRCDRKMEVAFMVCAINPSIDLHTDSLELLQLQQKLLWLLYDLGHLERYPMALGNLADLEELEPTPGRPDPLTLYHKGIASAKTYYRDEHIYPYMYLAGYHCRNRNVREALQAWADTATVIQDYNYCREDEEIYKEFFEVANDVIPNLLKEAASLLEAGEERPGEQSQGTQSQGSALQDPECFAHLLRFYDGICKWEEGSPTPVLHVGWATFLVQSLGRFEGQVRQKVRIVSREAEAAEAEEPWGEEAREGRRRGPRRESKPEEPPPPKKPALDKGLGTGQGAVSGPPRKPPGTVAGTARGPEGGSTAQVPAPTASPPPEGPVLTFQSEKMKGMKELLVATKINSSAIKLQLTAQSQVQMKKQKVSTPSDYTLSFLKRQRKGL"}, "B2": {"name": "His-Daxx (183–260) (domain or fragment, UniProt Q9UER7 183-260, looked up)", "chain": "GSRRQIQRLEQLLALYVAEIRRLQEKELDLSELDDPDSAYLQEARLKRKLIRLFGRLCELKDCSSLTGRVIEQRIPYR"}},
  "key": {"[1]": {"molecular_target": "His-Daxx (183–398) (UniProt Q9UER7 183-398)", "assay": "pull-down"}, "[2]": {"molecular_target": "GST-Daxx (UniProt Q9UER7 1-740)", "sequence (Q9UER7 whole entry)": "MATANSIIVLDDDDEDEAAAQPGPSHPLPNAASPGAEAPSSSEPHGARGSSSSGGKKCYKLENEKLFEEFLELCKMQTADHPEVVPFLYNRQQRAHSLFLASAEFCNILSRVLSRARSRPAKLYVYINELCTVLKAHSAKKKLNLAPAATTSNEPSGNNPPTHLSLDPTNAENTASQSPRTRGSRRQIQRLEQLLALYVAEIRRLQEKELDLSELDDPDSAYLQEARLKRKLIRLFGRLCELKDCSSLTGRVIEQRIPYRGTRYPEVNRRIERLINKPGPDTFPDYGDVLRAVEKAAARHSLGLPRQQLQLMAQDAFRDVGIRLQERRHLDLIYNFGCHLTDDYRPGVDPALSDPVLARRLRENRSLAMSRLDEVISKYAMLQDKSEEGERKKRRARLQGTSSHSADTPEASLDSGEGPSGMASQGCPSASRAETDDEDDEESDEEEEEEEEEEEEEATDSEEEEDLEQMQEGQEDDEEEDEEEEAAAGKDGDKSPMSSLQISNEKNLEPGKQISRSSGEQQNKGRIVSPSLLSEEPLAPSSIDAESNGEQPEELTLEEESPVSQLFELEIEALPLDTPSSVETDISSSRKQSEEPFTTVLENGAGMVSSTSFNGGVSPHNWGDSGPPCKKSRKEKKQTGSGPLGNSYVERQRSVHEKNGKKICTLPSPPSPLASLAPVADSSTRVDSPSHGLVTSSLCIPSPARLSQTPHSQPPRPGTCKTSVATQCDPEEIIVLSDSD", "assay": "pull-down"}, "[3]": {"molecular_target": "B1", "assay": "co-IP"}},
  "note": "Where no end group is shown, it is not given here.",
  "data": [
    {"binder": "GTCKWEEGSPTPVLHVGWATQSE (also: biotinylated)", "note": "[biotinylated menin peptide GTCKWEEGSPTPVLHVGWATQSE]", "values": [
      {"measurement": "binding result", "setting": "[1]", "value": "binds"}
    ]},
    {"binder": "B1", "values": [
      {"measurement": "binding result", "setting": "[2]", "value": "binds"}
    ]},
    {"binder": "B2", "values": [
      {"measurement": "binding result", "setting": "[3]", "value": "binds"}
    ]}
  ]
}
